The text below walks through data of the supplement of paper PMC10567573.

± gives the standard deviation.

A short description of the data set: protein stability index of a GFP-peptide fusion (GPS, HEK-293T) (PSI 1-6); higher = more stable. The settings on record: c terminus: a fixed tail appended.
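Further: 24-mer peptide tiles fused after GFP, lentivirally expressed, FACS-sorted into six equal bins by GFP/DsRed ratio, decoded by Illumina sequencing, PSI is the read-weighted mean bin number.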

Consider LSTKKSPCAGSTSLSHSPGCSSTQ [LCOR], for which the protein stability index was found to be 4.35 ± 0.22 (treatment: DMSO) and 4.27 ± 0.12 (treatment: MLN4924 1 uM, 8 h).
In the same order, the values of LSVRSVFFGVFQSFVVLLYILDNE [CLPTM1] are 3.19 ± 0.75 and 2.92 ± 0.55.
In the same order, the values of LTAKQLIKSIVEASKGCQLGKTEQ [TRIM63] are 2.57 ± 0.18 and 2.38 ± 0.6.
In the same order, the values of LTALLEKYTPSNKHGFSWAVPKFM [DLC1] are 2.6 ± 0.57 and 2.09 ± 0.2.
As to LTISPKAARVGLLQYSTQVHTEFT [MATN2], where the note is “treatment: MLN4924 1 uM, 8 h”, the protein stability index is 2.436 ± 0.019.
Consider LTMTFPAGIVRVFSGTPPPPVLSF [FCHO1], for which the protein stability index runs as follows: (treatment: DMSO) 2.92 ± 0.5; (treatment: MLN4924 1 uM, 8 h) 3.13 ± 0.54.
As for LTNNVDLDNTKKKMEIYQKENKDV [MNAT1], the protein stability index stood at 5.34 ± 0.3 (treatment: DMSO) and 5.31 ± 0.19 (treatment: MLN4924 1 uM, 8 h).
In the same order, the values of LTRKGLVRVVFFPLFSNWWIQVTS [PHTF1] are 3.06 ± 0.039 and 2.81 ± 0.71.
As to LVAEILPAPGKLLGPCVVGYGIYY [SAT2], the protein stability index (treatment: DMSO) came out at 2.66 ± 0.94 and the protein stability index (treatment: MLN4924 1 uM, 8 h) is 2.53 ± 0.44.
In the same order, the values of LVDVRQEQLQGFNTRVRELAQAAG [DNAAF3] are 3.67 ± 0.55 and 3.67 ± 0.29.
In the same order, the values of LVGIFILAVSRPRSSPDDLKALTR [SCARA5] are 2.84 ± 0.39 and 2.84 ± 0.69.
In the same order, the values of LVKKLQDSVLERWVNDPQRMDKRT [GOLPH3L] are 2.69 ± 0.14 and 2.93 ± 0.29.
On to LVLSEDRKSVRYTRQKKNLPDSPL [TRIM15], for which the protein stability index reads like this: (treatment: DMSO) 3.48 ± 0.33; (treatment: MLN4924 1 uM, 8 h) 3.77 ± 0.15.
For LVNTSENLSKSRKILRSMSRKVTT [VTI1B], the protein stability index (treatment: DMSO) stood at 3.33 ± 0.29 and the protein stability index (treatment: MLN4924 1 uM, 8 h) amounted to 3.57 ± 0.22.
In the same order, the values of LVQLPNINRVSTCYSEEITVCGDL [PPEF2] are 2.42 ± 0.42 and 2.65 ± 0.44.
In the same order, the values of LVSLTSRNPDQRKESLCISITVSK [FBXO34] are 2.26 ± 0.1 and 2.47 ± 0.15.
For LVTGLAIEEACYAQTIPTKDRLEG [AUH], in that order: 3.02 ± 0.34 and 3.13 ± 0.27.
Sequence LVTTGANVNETDDWGRTALHYAAA [ANKRD44] came in with a protein stability index (treatment: DMSO) of 3.34 ± 0.26 and a protein stability index (treatment: MLN4924 1 uM, 8 h) of 3.52 ± 0.15.
For LVVMAPSPSESSETVLALVNCISP [DENND6A], in that order: 2.4 ± 0.32 and 2.15 ± 0.19.
In the same order, the values of LWWIAPGDETAHRIDSQFLIGDTL [MYORG] are 1.95 ± 0.23 and 2.06 ± 0.43.
For MACHRCLVYLGDLSRYQNELAGVD [SMG5], in that order: 2.64 ± 0.7 and 2.54 ± 0.55.
For MAVLEEIQQELIKQEQSIISEYEK [RPAIN], the protein stability index by setting is: (treatment: DMSO) 4.28 ± 0.16; (treatment: MLN4924 1 uM, 8 h) 4.47 ± 0.16.
MCMVMRGVQKMNSKTVTSTMLGVF [GCH1] gave a protein stability index (treatment: DMSO) of 2.31 ± 0.43 and a protein stability index (treatment: MLN4924 1 uM, 8 h) of 2.56 ± 0.44.
On to MDGRWQCSCWAWFLLVLAVVAGDT [ADAMTSL2], for which the protein stability index (treatment: DMSO) is 2.62 ± 1 and the protein stability index (treatment: MLN4924 1 uM, 8 h) was 2.45 ± 0.52.
In the same order, the values of MEDSPLPDLRDIELKLGRKVPESL [LURAP1L] are 4.68 ± 0.2 and 4.63 ± 0.23.
In the same order, the values of MEHQLLCCEVETIRRAYPDANLLN [CCND1] are 2.86 ± 0.24 and 2.87 ± 0.28.
For MELLCHEVDPVRRAVRDRNLLRDD [CCND2], in that order: 4.28 ± 0.34 and 4.5 ± 0.12.
With MENLPGLASGPGKYMPHLCQDSSG, the protein stability index reads like this: (treatment: DMSO) 4.05 ± 0.067; (treatment: MLN4924 1 uM, 8 h) 3.93 ± 0.12.
In the same order, the values of METSAPRAGSQVVATTARHSAAYR [FUNDC2] are 4.5 ± 0.19 and 4.2 ± 0.11.
In the same order, the values of MEYCLEVIKENDPSGFLQISDALI [TRIM9] are 2.47 ± 0.29 and 2.69 ± 0.28.
For MFLQLVPSWNGSLKQLLTETDVWF [GMCL1], in that order: 3.13 ± 0.68 and 2.56 ± 1.3.
MGNSMKSTPAPAERPLPNPEGLDS [SLA]: the protein stability index is, setting by setting: (treatment: DMSO) 5.07 ± 0.49; (treatment: MLN4924 1 uM, 8 h) 5.13 ± 0.59.
On to MGQVLPVFAHCKEAPSTASSTPDS [RTN2], for which the protein stability index is 4.67 ± 0.25 (treatment: DMSO) and 4.83 ± 0.23 (treatment: MLN4924 1 uM, 8 h).
In the same order, the values of MGWEGPNSRVDDTFWASWRAFAQI [MIR22HG] are 2.45 ± 0.28 and 2.21 ± 0.17.
For MHYCAVPPRGPLGQGAMFRLPTDS [NEUROD6], in that order: 2.97 ± 0.29 and 3.17 ± 0.38.
For MLQSFINYCLLFLIYTVMLAFRSG [SLC35F2], in that order: 2.83 ± 0.4 and 3.42 ± 0.28.
On to MMMMGPKEEEQSCEYETRLPGNHS [ZNF232], for which the protein stability index was 4.51 ± 0.48 (treatment: DMSO) and 4.64 ± 0.4 (treatment: MLN4924 1 uM, 8 h).
For MNKGDTEVMKCIVEVISDTLSKPS [CHGA], in that order: 2.84 ± 0.3 and 2.86 ± 0.31.
In the same order, the values of MPPGLHHQRKYTQSFCGENIMMPM [ZNF207] are 2.29 ± 0.6 and 2.27 ± 0.34.
As to MPPQPGIPQQQGMRPPMPPHGQYG [ZNF207], the protein stability index by setting is: (treatment: DMSO) 4.31 ± 0.2; (treatment: MLN4924 1 uM, 8 h) 4.43 ± 0.11.
For the sequence MQRLVAWDPACLPLPPPPPAFKSM [CEBPB], the protein stability index reads like this: (treatment: DMSO) 2.63 ± 0.39; (treatment: MLN4924 1 uM, 8 h) 2.91 ± 0.39.
In the case of MQVIAIVLYLMMPIVNISEVLGPL [PHTF1], the protein stability index is 3.08 ± 0.29 (treatment: DMSO) and 3.34 ± 0.38 (treatment: MLN4924 1 uM, 8 h).
For MRHIRFLKNEVERLKKQLRAAQLQ [CCDC6], in that order: 2.31 ± 0.25 and 2.23 ± 0.25.
In the same order, the values of MRLSSSPPRGPQQLSSFGSVDWLS [VENTX] are 2.99 ± 0.059 and 3.15 ± 0.3.
In the same order, the values of MRMSDTVTVKDETATMKDLEAEVK [R3HDM1] are 5.46 ± 0.072 and 5.37 ± 0.092.
As for MRYLRNHCLDQVGLFRKSGVKSRI [DLC1], the protein stability index runs as follows: (treatment: DMSO) 2.64 ± 0.36; (treatment: MLN4924 1 uM, 8 h) 2.64 ± 0.37.
In the same order, the values of MSAKLGKSSSLLTQTSEECNGILT [ZNF396] are 3.99 ± 0.16 and 4.2 ± 0.22.
For MSNQQEKYEAQNIVNSTEESDDAF [IQUB], in that order: 5.65 ± 0.18 and 5.47 ± 0.29.
For MSQTGSHPGRGLAGRWLWGAQPCL [ADAMTS4], in that order: 3 ± 0.38 and 2.28 ± 0.87.
Consider MTELRQRVAHEPVAPPEDKESESE [CDS2], for which the protein stability index is, setting by setting: (treatment: DMSO) 5.39 ± 0.26; (treatment: MLN4924 1 uM, 8 h) 5.44 ± 0.23.
For MTGTPKTQEGAKDLEVDMNKTEVT [ACSBG2], in that order: 5.64 ± 0.35 and 5.68 ± 0.27.
In the same order, the values of MWPPDPDPDPDPEPAGGSRPGPAV [CMTM3] are 5.02 ± 0.062 and 5.124 ± 0.016.
In the same order, the values of NAAHSLLSTNDKTIKLWKITERDK [PPP2R2C] are 3.68 ± 0.085 and 3.82 ± 0.27.
With NCPGQYTFSMPSDSHVSSCSEDWV [CD69], the protein stability index reads like this: (treatment: DMSO) 3.8 ± 0.21; (treatment: MLN4924 1 uM, 8 h) 4.06 ± 0.22.
In the same order, the values of NDIMAYMFGFFFGRTPLIKLSPKK [CDS2] are 2.03 ± 0.31 and 2.08 ± 0.22.
For NGSCENSDASSHANAAKHTQDSAR [EHMT1], in that order: 5.27 ± 0.37 and 5.3 ± 0.2.
In the same order, the values of NHLQTHDPNKMAFGCEECGKKYNT [PLAGL1] are 4.14 ± 0.16 and 4.77 ± 0.27.
With NHMYSCRFSRQCVVDKDKRNQCRY [HNF4A], the protein stability index (treatment: DMSO) was 2.61 ± 0.057 and the protein stability index (treatment: MLN4924 1 uM, 8 h) was found to be 2.56 ± 0.074.
Regarding NILIYETPRGPDPALLEATGGAAG [KCTD13], the protein stability index is, setting by setting: (treatment: DMSO) 3.88 ± 0.19; (treatment: MLN4924 1 uM, 8 h) 3.84 ± 0.45.
For NIPFFPDLQITDQVALLRLTWSEL [NR2F2], in that order: 2.68 ± 0.45 and 2.12 ± 0.58.
With NIQAGINENDFYDGAWCAGRNDLQ [CPXM2], the protein stability index (treatment: MLN4924 1 uM, 8 h) worked out at 3.48 ± 0.71.
With NIRSARGNNPNGREAKMICFKSVA [ELOA2], the protein stability index is, setting by setting: (treatment: DMSO) 3.4 ± 0.15; (treatment: MLN4924 1 uM, 8 h) 3.34 ± 0.27.
As for NITVVKGIRLSENVIDRMKESSPS [CHCHD3], the protein stability index is, setting by setting: (treatment: DMSO) 3.66 ± 0.29; (treatment: MLN4924 1 uM, 8 h) 3.51 ± 0.28.
For NKKAKRYLLHGLECVVAMHQAQLI [EIF5], in that order: 3.02 ± 0.47 and 2.5 ± 0.4.
With NKRLAKYRMRNVHPKPKLVRVLES [CLCN6], the protein stability index reads like this: (treatment: DMSO) 3.1 ± 0.33; (treatment: MLN4924 1 uM, 8 h) 3 ± 0.29.
In the same order, the values of NKTEVTPRLWTTCRDGEVLLRLSK [ACSBG2] are 2.4 ± 0.22 and 2.37 ± 0.21.
For NLQDLCRIKIRQCIGLQNLKLLDE [ASB7], in that order: 3.57 ± 0.24 and 3.56 ± 0.31.
In the same order, the values of NNDDDEDEDDEDEDEDEDEDEDED [TAF7L] are 5.57 ± 0.15 and 5.55 ± 0.23.
Sequence NNPISEHFHPTVIGESMYGDFEEA [TENT5C] yielded a protein stability index (treatment: DMSO) of 4.89 ± 0.28 and a protein stability index (treatment: MLN4924 1 uM, 8 h) of 4.89 ± 0.17.
In the same order, the values of NNQSDLEKEMQKMNPYKIDIGAVY [PRIM1] are 3.03 ± 0.24 and 3.03 ± 0.16.
For NPKDCSENIEVKEGGLYFERRPVA [SPSB2], in that order: 4.68 ± 0.17 and 4.76 ± 0.058.
For NPQSPPQDSSVTSKRNIKKGAVPR [HDAC6], in that order: 4.99 ± 0.43 and 5.14 ± 0.38.
Regarding NQQLRNELQLEQSRAANQEQRAND [CEP70], the protein stability index came to 5.48 ± 0.11 (treatment: DMSO) and 5.42 ± 0.24 (treatment: MLN4924 1 uM, 8 h).
